Results published in US20220049008A1 (MULTITUDE, published 2022).
“And” between values parts separate entries of the source, which are not always exact repeats. Equal entries are not always repeated.

Tests used:
[1] = target: T1, CD44 v7/8 (human CD44 v7/8 splice variant) on CD44+ cells (human, UniProt P16070 21-742); test: cell-based or functional assay
[2] = target: T1, CD44 v7/8 (human CD44 v7/8 splice …); test: flow cytometry on A253 cells; HIS029 (parental antibody), A253 cells
[3] = target: T1, CD44 v7/8 (human CD44 v7/8 splice …); test: flow cytometry on CD44+ A253 cells, antibody titration
[4] = target: T1, CD44 v7/8 (human CD44 v7/8 splice …); test: flow cytometry on A253 cells; humanized HIS029, A253 cells

T1 sequence (P16070 21-742 limits assumed, change not shown): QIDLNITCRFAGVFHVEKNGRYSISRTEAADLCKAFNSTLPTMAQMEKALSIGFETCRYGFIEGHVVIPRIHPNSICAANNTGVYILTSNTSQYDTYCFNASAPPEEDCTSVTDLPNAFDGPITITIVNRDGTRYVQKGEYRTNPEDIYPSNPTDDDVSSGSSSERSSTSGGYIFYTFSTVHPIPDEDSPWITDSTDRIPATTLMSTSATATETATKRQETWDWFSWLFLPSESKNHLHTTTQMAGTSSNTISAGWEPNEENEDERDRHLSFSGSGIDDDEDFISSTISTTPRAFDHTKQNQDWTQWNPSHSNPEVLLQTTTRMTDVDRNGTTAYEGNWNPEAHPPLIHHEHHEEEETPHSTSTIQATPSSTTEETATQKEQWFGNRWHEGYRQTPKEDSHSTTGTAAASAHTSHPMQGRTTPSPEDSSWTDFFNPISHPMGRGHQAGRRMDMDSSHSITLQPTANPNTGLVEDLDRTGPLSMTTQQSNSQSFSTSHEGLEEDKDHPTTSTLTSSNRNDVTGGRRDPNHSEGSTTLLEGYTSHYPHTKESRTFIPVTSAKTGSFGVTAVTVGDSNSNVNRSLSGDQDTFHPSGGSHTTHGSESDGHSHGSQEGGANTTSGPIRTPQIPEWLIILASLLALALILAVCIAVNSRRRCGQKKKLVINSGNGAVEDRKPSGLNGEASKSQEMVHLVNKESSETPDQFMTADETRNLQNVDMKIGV

Row | Binder | cell viability, IC50 (A253 cells) [1] [nM] | cell viability, IC50 (BXPC3 cells) [1] [nM] | cell viability, IC50 (D562 cells) [1] [nM] | cell viability, IC50 (NCI-H520 cells) [1] [nM] | Kd [2] [nM] | EC50 (read off the curve) [3] | Kd [4] [nM]
1 | HIS029-vc-MMAE (other, monomethyl auristatin E coupled through a maleimidocaproyl-Val-Cit-PAB linker by a thiol-based reaction; sites not stated) VH: QVHLQQPGAELVRPGASVKLSCKASGYTFTNYWINWVKQRPGQGLEWIGNIYPSDSYTNYNQKFKDKATLTVDKSSSTAYVHLSSPTSEDSAVYYCTKWGDSDYWGQGTTLTVSS VL: DIKMTQSPSSMYASLGERVTITCKASQDINRYLRWFQQKPGKSPKTLIYRANRLVDGVPSRFSGSGSGQDYSLTISSLEYEDMGIYYCLQYDEFPFTFGSGTKLEIK | 0.797 | 0.189 | 0.63 | 0.588 | – | – | –
2 | HIS029 (antibody, V domains shown, Monoclonal antibody from a hybridoma, V regions amplified with mouse Ig primers; also called anti-CD44 v7/8 antibody; antibody clone HIS029) VH: QVHLQQPGAELVRPGASVKLSCKASGYTFTNYWINWVKQRPGQGLEWIGNIYPSDSYTNYNQKFKDKATLTVDKSSSTAYVHLSSPTSEDSAVYYCTKWGDSDYWGQGTTLTVSS VL: DIKMTQSPSSMYASLGERVTITCKASQDINRYLRWFQQKPGKSPKTLIYRANRLVDGVPSRFSGSGSGQDYSLTISSLEYEDMGIYYCLQYDEFPFTFGSGTKLEIK | – | – | – | – | 35 | ~40 nM | –
3 | Humanized HIS029 (antibody, V domains shown, also called humanized HIS029 antibody) VH: QVQLVQSGSELKKPGASVKVSCKASGYTFTNYWINWVRQAPGQGLEWMGNIYPSDSYTNYNQKFKDRAVFSVDKSVSTAYLQISSLKAEDTAVYYCTKWGDSDYWGQGTTVTVSS VL: DIQMTQSPSSLSASVGDRVTITCKASQDINRYLRWFQQKPGKSPKTLIYRANRLVDGVPSRFSGSGSGQDYTLTISSLQPEDFATYYCLQYDEFPFTFGQGTKLEIK | – | – | – | – | – | ~40 nM and ~60 nM | 36
